13 molecules from paper PMC8699515, “Native llama Nanobody Library Panning Performed by Phage and Yeast Display Provides Binders Suitable for C-Reactive Protein Detection” (Biosensors, 2021) can be followed below.

The chains are these.
B4: C-reactive protein (CRP) from human pleural fluid (natural protein, UniProt P02741 19-224, looked up)
chain: QTDMSRKAFVFPKESDTSYVSLKAPLTKPLKAFTVCLHFYTELSSTRGYSIFSYATKRQDNEILIFWSKDIGYSFTVGGSEILFEVPEVTVAPVHICTSWESASGIVEFWVDGKPRVRKSLKKGYTVGAEASIILGQEQDSFGGNFEGSQSLVGDIGNVNMWDFVLSPDEINTIYLGGPFSPNVLNWRALKYEVQGEVFTKPQLWP
notes: C-reactive protein, human, purified from pleural fluid; source: bought: LEE Biosolutions (from human pleural fluid)

The target in assay [1] is B4. The experiment in a line: ELISA; CRP (0.5 ug/well) or BSA coated overnight at 4 C; purified nanobodies 0.5 ug/well (A6, A12, B9, H7) or 0.1 ug/well (E12) in 2% BSA in PBS, 2 h at room temperature; anti-His and anti-mouse HRP, TMB. Particulars: both partners purified. In general terms: An ELISA detects its analyte on a solid surface through an enzyme-linked reagent.
The target of assay [2] is B4. Put plainly: BLI; Octet K2; CRP (25 nM) in PBS immobilised on aminopropylsilane (APS) tips, blocked with 1% BSA/PBS; nanobodies 10-1200 nM in 0.1% BSA/PBS; 30 C; 1:1 model, global fit. Conditions: both partners purified. In general terms: In BLI a coated tip is dipped into the sample, and binding shifts an interference pattern.
The target of assay [3] is T1, BSA (Bos taurus, UniProt P02769).
T1 construct: BSA (serum albumin), used as negative control
The experiment in a line: electrochemical impedance spectroscopy; gold electrode carrying E12-SpyTag held by SpyCatcher; CRP or BSA in solution; room temperature, 0.1 M KNO3 with 5 mM K3[Fe(CN)6]/K4[Fe(CN)6]; triplicate. Particulars: both partners purified.

Assay [4] addresses B4. The experiment in a line: ELISA; CRP (0.5 ug/well) or BSA coated 2 h at 37 C; purified nanobodies 0.5 ug/well (A6, A12, B9, H7) or 0.1 ug/well (E12) in 2% BSA in PBS, 2 h at room temperature; anti-His and anti-mouse HRP, TMB. Conditions: both partners purified.
Assay [5] addresses B4. The experiment in a line: ELISA; phage screening ELISA: CRP 0.25 ug/well coated overnight at 4 C on MaxiSorp, saturated with 3% BSA-PBS; phages in culture supernatant (100 uL, not normalised) 2 h at room temperature; anti-M13 HRP, TMB, absorbance at 450 nm; ratio of the CRP signal to the BSA control, triplicates. Particulars: one partner purified.
Assay [6] addresses T2, E12 fused to mouse Fc (E12-mFc) (llama).
T2 construct: as the VHH of m7
Put plainly: ELISA; short protocol (coating 2 h at 37 C) with CRP 1 to 10 ug/mL; 25 ug/mL E12-mFc; anti-mouse HRP, TMB; triplicate. Particulars: both partners purified.

T1 sequence (P02769 25-607): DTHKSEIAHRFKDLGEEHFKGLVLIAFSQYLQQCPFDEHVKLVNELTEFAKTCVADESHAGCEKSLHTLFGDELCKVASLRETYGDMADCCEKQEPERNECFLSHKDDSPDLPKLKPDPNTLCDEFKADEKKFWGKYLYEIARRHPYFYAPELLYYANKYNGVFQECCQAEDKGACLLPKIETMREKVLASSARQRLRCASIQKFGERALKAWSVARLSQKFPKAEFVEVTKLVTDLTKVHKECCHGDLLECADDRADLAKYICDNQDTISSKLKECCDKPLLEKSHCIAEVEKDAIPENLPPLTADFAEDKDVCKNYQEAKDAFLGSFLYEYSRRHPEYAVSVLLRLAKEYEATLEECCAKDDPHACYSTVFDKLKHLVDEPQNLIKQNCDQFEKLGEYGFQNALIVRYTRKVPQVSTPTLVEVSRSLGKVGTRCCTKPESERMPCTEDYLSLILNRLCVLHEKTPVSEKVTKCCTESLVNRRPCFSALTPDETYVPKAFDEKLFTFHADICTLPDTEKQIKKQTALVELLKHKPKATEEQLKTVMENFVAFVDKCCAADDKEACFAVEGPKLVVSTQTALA

B1: anti-CRP nanobody E12 fused to 6xHis-SpyTag (VHH)
VHH: EVQLQASGGGLVQAGGSLRLSCAASRRPSSFKVMGWYRQAPGKQRELVARITSGGSTDYADSVKGRFTISRDNAKNTVYLQMNSLEPEDTAVYYCNAYRWGRDNWGQGTQVTVSS
notes: pET14-derived vector; In the biosensor it was held by SpyCatcher attached to the gold electrode
What is called Kd is the free concentration of one partner at which half of the binding sites on the other are occupied at equilibrium, for simple one-to-one binding. Higher therefore signals weaker binding. Regarding B1, the ELISA signal turned out to be 2.84 in assay [1] and 2.6 in assay [4]. The molecule further yielded a Kd in assay [2] of 13 nM. Moreover, the binding result in assay [3] is on record as “no binding (tested: 1 μg/mL)”.

B2: anti-CRP nanobody E12 displayed on phage (VHH)
VHH: EVQLQASGGGLVQAGGSLRLSCAASRRPSSFKVMGWYRQAPGKQRELVARITSGGSTDYADSVKGRFTISRDNAKNTVYLQMNSLEPEDTAVYYCNAYRWGRDNWGQGTQVTVSS
notes: source: E. coli TG1 with M13K07 helper phage, phages in culture supernatant
In the case of B2, the “Screening ELISA (CRP/BSA Signal)” value in assay [5] came to 13.3.

B3: anti-CRP nanobody C1 displayed on phage (VHH)
VHH: DVQLQASGGGLVQPGGSLRLSCRAPRMVFRRNVMGWFRQAPGKQRELVAYITNDGVTKYTDSVKGRFTISRDNAENTMYLQMNNLKTEDTAVYYCNVRRVLGIAGYWGQGTQVTVSS
notes: as for B2
On to B3, for which the “Screening ELISA (CRP/BSA Signal)” value in assay [5] turned out to be 12.5. B4: the binding result in assay [6] is listed as “binds”.

B5: anti-CRP nanobody A12 fused to 6xHis-SpyTag (VHH)
VHH: EVQLQASGGGLVQAGGSLGLSCAASTRAFSTYAMGWFRQVPGKEREFVAAISSGGSTVYADSVKGRFTISRDNAKNTVYLQMNNLRPEDTAVYYCAARQGIVVRSPTRMDYWGQGTQVTVSS
notes: pET14-derived vector
As for B5, the ELISA signal in assay [1] worked out at 1.23; in assay [4], 0.974. In assay [2], this molecule had a Kd of 122 nM.

B6: anti-CRP nanobody A12 displayed on phage (VHH)
VHH: EVQLQASGGGLVQAGGSLGLSCAASTRAFSTYAMGWFRQVPGKEREFVAAISSGGSTVYADSVKGRFTISRDNAKNTVYLQMNNLRPEDTAVYYCAARQGIVVRSPTRMDYWGQGTQVTVSS
notes: as for B2
As for B6, in assay [5], the “Screening ELISA (CRP/BSA Signal)” value stood at 15.5.

B7: anti-CRP nanobody B9 displayed on phage (VHH)
VHH: EVQLQASGGGSVQAGGSLRLSCATSGIIFRNNIMTWYRQAPGKNRELVATITTGGSTNYSDSVKGRFTISRDNTKNTVYLQMSNLKPDDTGVYYCNARRNRFLTGSYGQGTQVTVSS
notes: as for B2
On to B7, for which, in assay [5], the “Screening ELISA (CRP/BSA Signal)” value came to 14.6.

B8: anti-CRP nanobody B9 fused to 6xHis-SpyTag (VHH)
VHH: EVQLQASGGGSVQAGGSLRLSCATSGIIFRNNIMTWYRQAPGKNRELVATITTGGSTNYSDSVKGRFTISRDNTKNTVYLQMSNLKPDDTGVYYCNARRNRFLTGSYGQGTQVTVSS
notes: pET14-derived vector
In the case of B8, the figures for the ELISA signal in assay [1] and in assay [4] were 1.56 and 2.28, respectively.

B9: anti-CRP nanobody C10 displayed on phage (VHH)
VHH: EVQLQASGGGLVQAGGSLRLSCAASGRTFSNYGMGWFRQAPGKEREFVAAITSGGSTYYRDSVKGRFTISRDNAKNTVYLQMNSLKPDDTAVYYCAASRGVTAIWGSSYDYWGQRTLVTVSS
notes: C10 gave no soluble 6xHis-SpyTag construct; source: E. coli TG1 with M13K07 helper phage, phages in culture supernatant
On to B9, for which the “Screening ELISA (CRP/BSA Signal)” value in assay [5] is 14.6.

B10: anti-CRP nanobody A6 displayed on phage (VHH)
VHH: EVQLQASGGGLVRPGGSLRLSCAVSGGTLSNYAVGWFRRAPGNQRELVATFTSGGTTLYADSVKGRFTISRDNLKNTVYLQMNSLKPEDTAVYYCAAKPGRASSQATDYDAWGQGTQVTVSS
notes: as for B2
As to B10, the “Screening ELISA (CRP/BSA Signal)” value in assay [5] was determined as 11.8.

B11: anti-CRP nanobody A6 fused to 6xHis-SpyTag (VHH)
VHH: EVQLQASGGGLVRPGGSLRLSCAVSGGTLSNYAVGWFRRAPGNQRELVATFTSGGTTLYADSVKGRFTISRDNLKNTVYLQMNSLKPEDTAVYYCAAKPGRASSQATDYDAWGQGTQVTVSS
notes: pET14-derived vector
In the case of B11, the ELISA signal in assay [1] turned out to be 0.476; in assay [4], 0.231. Further, the Kd in assay [2] was 51 nM.

B12: anti-CRP nanobody H7 fused to 6xHis-SpyTag (VHH)
VHH: EVQLQASGGGLVQAGGSLRLSCAASGRTFSSYATGWYRQAPGKERELVAAISSGGSTYYADSVKGRFTISRDNAKNTVYLQMNSLKAEDTAVYYCAGGRRVGVLIGNEYDYWGQGTLVTVSS
notes: pET14-derived vector
For B12, the ELISA signal in assay [1] amounted to 1.47; in assay [4], 0.904. The equilibrium dissociation constant (Kd) in assay [2] stood at 154 nM.

B13: anti-CRP nanobody A10 displayed on phage (VHH)
VHH: EVQLQASGGGLVQAGGSLRLSCVASRSILSLAVMGWYRQAPGKERELVASITSGGNTNYADVVKGRFIISRDNAKNTVNLQMNTLRPEDTAVYYCSAKSILTGPNHWRQETQVTVSS
notes: as for B2
On to B13, for which, in assay [5], the “Screening ELISA (CRP/BSA Signal)” value was found to be 12.3.
